B1: H_N30: microbial HemG protoporphyrinogen oxidase, SEQ ID NO:5 (SEQ ID NO:14 lacking start methionine) (protein, listed as Erwinia toletana)
chain: MKALILFSSREGQTREIASYIANSIKEEMECDVFNILRVEQIDWSQYDRVLIGGSIHYGHFHPAVAKFVKRHLHELQQRSSGFFCVNLTARKADKRTPQTNAYMRKFLLQSPWQPDCCAVFAGALRYTRYRWFDRVMIQLIMRMTGGETDTSKEVEYTDWTQVARFAQEFAHLPGKTQ
B2: H_N20: microbial HemG protoporphyrinogen oxidase, SEQ ID NO:2 (SEQ ID NO:12 lacking start methionine) (protein, listed as Pantoea ananatis)
chain: MKALILFSTRDGQTQKIASAIADEIKGQQSCDVINIQDAKTLDWQQYDRVLIGASIRYGHFQPVVNEFVKHNLLALQQRVSGFFSVNLTARKPEKRSPETNAYTVKFLAQSPWQPDCCAVFAGALYYPRYRWFDRVMIQFIMRMTGGETDASKEVEYTDWQQVQRFARDFAQLPGKSY

How the values were obtained:
[1] = system: soybean plantlets; assay: High-throughput soybean screening for herbicide tolerance (plantlets); assay type: in vivo, soybean (A3555); set-up: key: 0 for poor tolerance, high damage, low green coloration; 1 for some tolerance, average damage, moderate green coloration; 2 for good tolerance, low damage, high green coloration; details: S-3100 spray five weeks post-transformation, scored day four
Source text: A high-throughput plant transformation and screening method was used to evaluate large numbers of constructs in transgenic plants for herbicide tolerance in early transformation plantlet tissue. This allowed for faster and higher volume screening of construct configurations and PPO enzymes.
This permitted the side-by-side comparison of seven different HemG PPO enzymes with thirty-seven different targeting peptides using the same promoter and 3′UTR elements for gene expression. These plant transformation constructs were used to transform soybean excised embryos (germplasm A3555) using A. tumefaciens and standard methods known in the art. Four hundred explants were inoculated for each construct resulting in twelve containers per construct. A sterile PPO herbicide solution was used for herbicide tolerance testing. The herbicide solution consisted of 0.3 g of S-3100 in crop oil concentrate (5.0 mL) and 495 mL of deionized water. This was filtered through a 0.45 micron Nalgene® Rapid-Flow™ Tissue Culture Filter Unit and Surfactant-Free Cellulose Acetate membrane filter unit (VWR, Radnor, PA, USA). The resulting sterile solution was shaken before application.
At five weeks post-transformation, four of the twelve plant containers per construct were sprayed with two passes of the sterile PPO herbicide solution. The treated plantlets were then enclosed in the container and received at least 15 hours of light exposure post spray each day for four days. At the end of day four post application of S-3100, the treated plantlets were photographed and scored on a visual scale of green coloration (green coloration was representative of healthy photosynthetic plant tissue as compared to photo-bleached tissue) versus damage. The scoring values were 0 for poor tolerance, high damage, low green coloration; 1 for some tolerance, average damage, moderate green coloration; and 2 for good tolerance, low damage, high green coloration. The scoring for each construct is presented in Table 9, where n.d. indicates the analysis was not conducted.

[2] = system: R0 soybean plants; assay: R0 transgenic soybean herbicide tolerance at eleven weeks; assay type: in vivo; details: R0 plants sprayed with S-3100 at eleven weeks, rated seven days after treatment
Protocol: The plantlets in the non-sprayed containers corresponding to constructs having a score of 2 were transplanted at approximately 7 weeks post transformation and grown as R0 plants using standard methods known in the art. Plantlets corresponding to non-tolerant scores of 0 and 1 were also grown to serve as negative controls. The R0 plants were grown in a greenhouse under long-day nursery conditions (18 hr light at 80° F. then 6 hr dark at 74° F.) for approximately four weeks. At eleven weeks, the R0 plants were sprayed with two passes of the same herbicide solution (0.3 g of 5-3100) described above. Herbicide injury ratings were collected seven days after treatment.
The results of the herbicide tolerance application at eleven weeks to the R0 plants confirmed the low percent injury rating scores observed in the high-throughput screen at five weeks. Any injury rating of 30% or above was equivalent to non-transgenic soybean injury ratings. A few of the constructs stood out as providing very good tolerance to the herbicide application. […] Data are provided in Table 10, where n.d. indicates the analysis was not conducted.

Molecule | coloration score ([1]; TP9) | coloration score ([1]; TP11) | coloration score ([1]; TP12) | coloration score ([1]; TP13) | coloration score ([1]; TP15) | coloration score ([1]; TP17) | coloration score ([1]; TP18) | coloration score ([1]; TP19) | coloration score ([1]; TP24) | coloration score ([1]; TP26) | coloration score ([1]; TP27) | coloration score ([1]; TP28) | coloration score ([1]; TP29) | coloration score ([1]; TP33) | percent injury score ([2]; TP15) [%] | also measured
B1 | 1 | 1 | 1 | 1 | 1 | 1 | 0 | 0 | 1 | 0 | 0 | 0 | 1 | 1 | 35 | coloration score ([1]; TP10): 0; percent injury score ([2]; TP1): 5%; percent injury score ([2]; TP9): 35%; percent injury score ([2]; TP11): 35%; percent injury score ([2]; TP26): 35%
B2 | 1 | 1 | 2 | 2 | 1 | 2 | 1 | 1 | 1 | 1 | 1 | 1 | 1 | 1 | 30 | coloration score ([1]; TP14): 0; coloration score ([1]; TP16): 1; coloration score ([1]; TP20): 2; coloration score ([1]; TP21): 0; coloration score ([1]; TP22): 1; coloration score ([1]; TP23): 1; coloration score ([1]; TP25): 1; coloration score ([1]; TP30): 1; coloration score ([1]; TP31): 1; coloration score ([1]; TP32): 0; percent injury score ([2]; TP12): 20%; percent injury score ([2]; TP13): 20%; percent injury score ([2]; TP17): 25%; percent injury score ([2]; TP20): 20%; percent injury score ([2]; TP29): 30%

— patent US12123009B2, “Methods and compositions for PPO herbicide tolerance in plants” (Monsanto Technology LLC, priority 2015, dated 2024)
